From patent publication US20110152173A1 (EMERGENT PRODUCT DEVELOPMENT SEATTLE, published 2011)
Blank lines part the entries; values can stand above or below the binder they belong to.

Columns and labels:
recombinant human TNF-α [1] = target: T1, recombinant human TNF-α (human, UniProt P01375 77-233); experiment: ELISA: plate-coated HIL-6, Xceptor, then rhTNF-α, detected with anti-TNF-α-biotin (simultaneous binding)
T1 construct: also called rhTNFα
Description: The plate was covered, and incubated overnight at 4° C. […] The absorbance of each well was read at 450 nm.

recombinant human sIL-6R = target: T2, recombinant human sIL-6R (human, UniProt P08887 20-358, limits assumed); experiment: ELISA: Xceptor captured on anti-human IgG-Fc, sIL-6R added, detected with anti-IL-6R-biotin
T2 construct: Bought; also called human soluble IL6R
T2 sequence (looked up): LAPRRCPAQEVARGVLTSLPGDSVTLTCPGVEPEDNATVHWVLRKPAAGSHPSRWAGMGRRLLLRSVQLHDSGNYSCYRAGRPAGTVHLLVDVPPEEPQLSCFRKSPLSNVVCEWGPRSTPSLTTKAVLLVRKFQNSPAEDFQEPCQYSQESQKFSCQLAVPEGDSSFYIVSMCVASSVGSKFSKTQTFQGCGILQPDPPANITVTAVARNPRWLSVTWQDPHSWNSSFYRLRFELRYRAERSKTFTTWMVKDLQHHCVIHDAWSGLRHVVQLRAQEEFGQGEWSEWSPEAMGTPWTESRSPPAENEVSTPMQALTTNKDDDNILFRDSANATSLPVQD
Description: Added to each well of a 96-well plate was 100 μl goat anti-human IgG-Fc (ICN Pharmaceuticals, Costa Mesa, Calif.) from a 2 μg/ml solution in PBS, pH 7.2-7.4. The plates were covered, and incubated overnight at 4° C. After washing four times with PBS-T, 250 μl Blocking buffer (PBS-T with 3% BSA or 10% normal goat serum) was added to each well, the plate was covered, and incubated at room temperature for 2 hours (or at 4° C. overnight). […] After washing the plate five times with PBS-T, added in duplicate wells was 100 μl/well recombinant human sIL-6R(R&D Systems) from a […] solution in Working buffer, the plate was covered, and incubated at room temperature for about 1 to 2 hours. After washing the plate five times with PBS-T, added 100 μl/well anti-human IL-6R-biotin (R&D Systems) from a 100 ng/ml solution in Working buffer, the plate was covered, and incubated at room temperature for about 1 to 2 hours. After washing the plate five times with PBS-T, 100 μl per well horse radish peroxidase-conjugated streptavidin (Zymed, San Francisco, Calif.) diluted 1:4,000 in Working buffer was added, the plate was covered, and incubated at room temperature for 30 minutes. After washing the plate six times with PBS-T, 100 μl per well 3,3,5,5-tetramentylbenzidine (TMB) substrate solution (Pierce, Rockford, Ill.) was added for about 3 to 5 minutes and then the reaction was stopped with 50 μl Stop buffer (1N H₂SO₄) per well. The absorbance of each well was read at 450 nm.

recombinant human TNF-α [2] = target: T1, recombinant human TNF-α; experiment: ELISA: Xceptor captured on anti-human IgG-Fc, rhTNF-α added, detected with anti-TNF-α-biotin
Description: Added to each well of a 96-well plate was 100 μl goat anti-human IgG-Fc (ICN Pharmaceuticals, Costa Mesa, Calif.) from a 2 μg/ml solution in PBS, pH 7.2-7.4. The plate was covered, and incubated overnight at 4° C. After washing four times with PBS-T, 250 μl Blocking buffer was added to each well, the plate was covered, and incubated at room temperature for 2 hours (or at 4° C. overnight). […] After washing the plate five times with PBS-T, 100 μl per well horse radish peroxidase-conjugated streptavidin (Jackson ImmunoResearch, West Grove, Pa.) diluted 1:1,000 in Working buffer was added, the plate was covered, and incubated at room temperature for 30 minutes. After washing the plate six times with PBS-T, 100 μl per well 3,3,5,5-tetramentylbenzidine (TMB) substrate solution (Pierce, Rockford, Ill.) was added for about 3 to 5 minutes and then the reaction was stopped with 50 μl Stop buffer (1N H₂SO₄) per well. The absorbance of each well was read at 450 nm.

[3] = target: TNFα (Biacore analyte of Example 12) (UniProt P01375 77-233, limits assumed); experiment: SPR (Biacore T100): binder captured by anti-human Fc, TNFα injected
Text: The unoccupied sites of the activated surface were blocked by ethanolamine. […] At the end of the cycle, the surface was regenerated gently using 3M MgCl₂ which dissociates protein bound to anti hFc capture antibody. […] The value of this parameter was then fixed and the data from the low density surface were used to calculate the association rate constant, kₐ and the Rₘₐₓ. This strategy maximizes signal-to-noise for the dissociation phase data and reduces the mass transport limitation for the association phase data. BIAevaluation software was used to perform these analyses.

Chain of TNFα (Biacore analyte of Example 12) (P01375 77-233 limits assumed): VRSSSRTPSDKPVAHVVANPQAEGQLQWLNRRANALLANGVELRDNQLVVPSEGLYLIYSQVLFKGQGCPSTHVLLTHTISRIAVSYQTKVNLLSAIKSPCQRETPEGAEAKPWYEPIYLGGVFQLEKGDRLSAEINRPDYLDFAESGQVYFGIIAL
T1 sequence (P01375 77-233 limits assumed): as above

binding result (recombinant human TNF-α [1]): binds
B1: TRU(XT6)-1006 (Fc fusion)
chain: LPAQVAFTPYAPEPGSTCRLREYYDQTAQMCCSKCSPGQHAKVFCTKTSDTVCDSCEDSTYTQLWNWVPECLSCGSRCSSDQVETQACTREQNRICTCRPGWYCALSKQEGCRLCAPLRKCRPGFGVARPGTETSDVVCKPCAPGTFSNTTSSTDICRPHQICNVVAIPGNASMDAVCTSTSPTRSMAPGAVHLPQPVSTRSQHTQPTPEPSTAPSTSFLLPMGPSPPAEGSTGDTGEPKSSDKTHTCPPCPAPEAAGAPSVFLFPPKPKDTLMISRTPEVTCVVVDVSHEDPEVKFNWYVDGVEVHNAKTKPREEQYNSTYRVVSVLTVLHQDWLNGKAYACAVSNKALPAPIEKTISKAKGQPREPQVYTLPPSRDELTKNQVSLTCLVKGFYPSDIAVEWESNGQPENNYKTTPPVLDSDGSFFLYSKLTVDKSRWQQGNVFSCSVMHEALHNHYTQKSLSLSPGQRHNNSSLNTRTQKARHSPNSEVQLLESGGGLVQPGGSLRLSCAASGFTFSQYNMIWVRQAPGKGLEWVSWISSSGGTEYADSVKGRFTISRDNSKNTLYLQMNSLRAEDTAVYYCAKDRGYGSGSYGAYDAFDIWGQGTMVTVSSGGGGSGGGGSGGGGSQDIQMTQSPSSLSASVGDRVTITCQTSQSIDRYLNWYQQKAGEAPKLLIYAASSLQSGVPSRFSGSGSGTDFTLTISSLQPEDFASYYCQQSYRTPRTFGQGTKVEIK
notes: not trimmed; also called Xceptor TNFRSF1B::HIL6

binding result (recombinant human sIL-6R): no binding | binding result (recombinant human TNF-α [2]): binds
B2: TRU(XT6)-1058 (Fc fusion)
chain: LPAQVAFTPYAPEPGSTCRLREYYDQTAQMCCSKCSPGQHAKVFCTKTSDTVCDSCEDSTYTQLWNWVPECLSCGSRCSSDQVETQACTREQNRICTCRPGWYCALSKQEGCRLCAPLRKCRPGFGVARPGTETSDVVCKPCAPGTFSNTTSSTDICRPHQICNVVAIPGNASMDAVCTSTSPTRSMAPGAVHLPQPVSTRSQHTQPTPEPSTAPSTSFLLPMGPSPPAEGSTGDTGEPKSSDKTHTCPPCPAPEAAGAPSVFLFPPKPKDTLMISRTPEVTCVVVDVSHEDPEVKFNWYVDGVEVHNAKTKPREEQYNSTYRVVSVLTVLHQDWLNGKAYACAVSNKALPAPIEKTISKAKGQPREPQVYTLPPSRDELTKNQVSLTCLVKGFYPSDIAVEWESNGQPENNYKTTPPVLDSDGSFFLYSKLTVDKSRWQQGNVFSCSVMHEALHNHYTQKSLSLSPGQRHNNSSLNTRTQKARHSPNSEVQLLESGGGLVQPGGSLRLSCAASGFTFSMYTMHWVRQAPGKGLEWVSWISPSGGWTKYADSVKGRFTISRDNSKNTLYLQMNSLRAEDTAVYYCAVSPWGGPFDYWGQGTLVTVSSGGGGSGGGGSGGGGSQDIQMTQSPSTLSASVGDRVTITCRASQSISSWLAWYQQKPGKAPKLLIYKASTLESGVPSRFSAGGSGTEFTLTISSLQPDDFGTYYCQQYNSYSLTFGGGTKVEII
notes: not trimmed; also called Xceptor TNFRSF1B::anti-HIL6

binding result (recombinant human sIL-6R): no binding | binding result (recombinant human TNF-α [2]): binds
B3: TRU(XT6)-1019 (Fc fusion)
chain: LPAQVAFTPYAPEPGSTCRLREYYDQTAQMCCSKCSPGQHAKVFCTKTSDTVCDSCEDSTYTQLWNWVPECLSCGSRCSSDQVETQACTREQNRICTCRPGWYCALSKQEGCRLCAPLRKCRPGFGVARPGTETSDVVCKPCAPGTFSNTTSSTDICRPHQICNVVAIPGNASMDAVCTSTSPTRSMAPGAVHLPQPVSTRSQHTQPTPEPSTAPSTSFLLPMGPSPPAEGSTGDTGEPKSSDKTHTCPPCPAPEAAGAPSVFLFPPKPKDTLMISRTPEVTCVVVDVSHEDPEVKFNWYVDGVEVHNAKTKPREEQYNSTYRVVSVLTVLHQDWLNGKAYACAVSNKALPAPIEKTISKAKGQPREPQVYTLPPSRDELTKNQVSLTCLVKGFYPSDIAVEWESNGQPENNYKTTPPVLDSDGSFFLYSKLTVDKSRWQQGNVFSCSVMHEALHNHYTQKSLSLSPGQRHNNSSLNTRTQKARHSPNSEVQLLESGGGLVQPGGSLRLSCAASGFTFSWYLMHWVRQAPGKGLEWVSGIWPSGGHTLYADSVKGRFTISRDNSKNTLYLQMNSLRAEDTAVYYCAREPLLWFGELSYNWFDPWGQGTLVTVSSGGGGSGGGGSGGGGSQDIQMTQSPSSVSASVGDRVTITCRASQGISSWLAWYQQKPGKAPKLLIYAASSLQSGVPSRFSGSGSGTDFTLTISSLQPEDFATYYCQQANSFPLTFGGGTKVEIK
notes: as for B2

binding result (recombinant human sIL-6R): no binding | binding result (recombinant human TNF-α [2]): binds
B4: TRU(X6T)-1019 (Fc fusion)
chain: EVQLLESGGGLVQPGGSLRLSCAASGFTFSWYLMHWVRQAPGKGLEWVSGIWPSGGHTLYADSVKGRFTISRDNSKNTLYLQMNSLRAEDTAVYYCAREPLLWFGELSYNWFDPWGQGTLVTVSSGGGGSGGGGSGGGGSQDIQMTQSPSSVSASVGDRVTITCRASQGISSWLAWYQQKPGKAPKLLIYAASSLQSGVPSRFSGSGSGTDFTLTISSLQPEDFATYYCQQANSFPLTFGGGTKVEIKTGEPKSSDKTHTCPPCPAPEAAGAPSVFLFPPKPKDTLMISRTPEVTCVVVDVSHEDPEVKFNWYVDGVEVHNAKTKPREEQYNSTYRVVSVLTVLHQDWLNGKAYACAVSNKALPAPIEKTISKAKGQPREPQVYTLPPSRDELTKNQVSLTCLVKGFYPSDIAVEWESNGQPENNYKTTPPVLDSDGSFFLYSKLTVDKSRWQQGNVFSCSVMHEALHNHYTQKSLSLSPGQRHNNSSLNTRTQKARHSPNSLPAQVAFTPYAPEPGSTCRLREYYDQTAQMCCSKCSPGQHAKVFCTKTSDTVCDSCEDSTYTQLWNWVPECLSCGSRCSSDQVETQACTREQNRICTCRPGWYCALSKQEGCRLCAPLRKCRPGFGVARPGTETSDVVCKPCAPGTFSNTTSSTDICRPHQICNVVAIPGNASMDAVCTSTSPTRSMAPGAVHLPQPVSTRSQHTQPTPEPSTAPSTSFLLPMGPSPPAEGSTGD
notes: also called Xceptor in the reverse orientation

Kd [3]: 3.1 pM | koff [3]: 0.00014 s⁻¹ | kon [3]: 4.7e+07 M⁻¹ s⁻¹ | binding result (recombinant human sIL-6R): no binding
B5: TRU(XT6)-1002 (Fc fusion)
chain: LPAQVAFTPYAPEPGSTCRLREYYDQTAQMCCSKCSPGQHAKVFCTKTSDTVCDSCEDSTYTQLWNWVPECLSCGSRCSSDQVETQACTREQNRICTCRPGWYCALSKQEGCRLCAPLRKCRPGFGVARPGTETSDVVCKPCAPGTFSNTTSSTDICRPHQICNVVAIPGNASMDAVCTSTSPTRSMAPGAVHLPQPVSTRSQHTQPTPEPSTAPSTSFLLPMGPSPPAEGSTGDTGEPKSSDKTHTCPPCPAPEAAGAPSVFLFPPKPKDTLMISRTPEVTCVVVDVSHEDPEVKFNWYVDGVEVHNAKTKPREEQYNSTYRVVSVLTVLHQDWLNGKAYACAVSNKALPAPIEKTISKAKGQPREPQVYTLPPSRDELTKNQVSLTCLVKGFYPSDIAVEWESNGQPENNYKTTPPVLDSDGSFFLYSKLTVDKSRWQQGNVFSCSVMHEALHNHYTQKSLSLSPGQRHNNSSLNTRTQKARHSPNSEVQLLESGGGLVQPGGSLRLSCAASGFTFSFYQMHWVRQAPGKGLEWVSGIYPSGGYTKYADSVKGRFTISRDNSKNTLYLQMNSLRAEDTAVYYCARDLGYGSSWYYFDYWGQGTLVTVSSGGGGSGGGGSGGGGSQSALTQPASVSGSPGQSITISCSGTDSDVGGYNHVSWYQQHPGKAPKLIIYDVDHRPSGISNRFSGSKSGNTASLTISGLQAEDEADYYCSSYRSGSTYVFGTGTKVTVL
notes: also called Xceptor TNFRSF1B::anti-HIL6
